Assays:
HLA-A*03:01 = test: IEDB peptide-MHC binding, purified MHC/direct/fluorescence; filed as Kd, often an IC50 or EC50 that approximates it; ≥ and ≤ were set here for values at or beyond the usual limits of such assays; conditions: source organism: SARS-CoV1
HLA-A*11:01 = test: as above; conditions: source organism: SARS-CoV1

Sequence	Kd (HLA-A*03:01) [nM]	Kd (HLA-A*11:01) [nM]
AITTSNCAK	646	54
AVLQSGFRK	259	80
ALRANSAVK	197	1760
KCYGVSATK	2070	8380
ATVVIGTSK	232	30
KVIQPRVEK	595	168
GVAMPNLYK	60	73
RLYYDSMSY	52	237
ITCVVIPSK	1880	290
SSNVANYQK	442	23
ATNNVFRLK	401	233
KLFAAETLK	–	234
QLFKPLTKK	215	237
ASLPTTIAK	56	19
VTFQGKFKK	321	91
SSSLTSLLK	276	51
LIGANYLGK	999	1470
AVDPAKAYK	1670	124
GTLSYDNLK	365	48
KMQRMLLEK	305	341
ATFSVPMEK	265	28
VVYRGTTTY	42	117
YIFFASFYY	1180	347

— the Immune Epitope Database (IEDB)
